{
  "source": "paper PMC10315472",
  "about": "(2023)",
  "binders": {"B1": {"name": "(ΔGFG)AMSIN (peptide)", "chain": "CPWNAYECDRHCVSKGYTGGNCRGKIRQTCHCY"}},
  "molecular_target": "wild-type SARS-CoV-2 Spike receptor-binding domain (SARS-CoV-2, UniProt P0DTC2 319-527)",
  "test": "SPR",
  "data": [
    {"binder": "B1", "values": [
      {"measurement": "koff", "value": 0.0223, "unit": "s⁻¹"}
    ]}
  ]
}
